# Reference: US20240209062A1 (INVETX, published 2024)
# Changes are numbered by the printed parent chain. Numbers in names are those of the source.
# B1: IgG with wild-type feline IgG1a Fc (antibody)
# heavy: DVQLVESGGDLVKPGGSLRLTCVASGLSLTSDSMSWVRQAPGKGLQWVSTLWSNRGTYYTDSVKGRFTISKDNAENTLYLQMNNLKTEDTATYYCASIYYYEADYLHWYFDFWGQGALVTVSSASTTAPSVFPLAPSCGTTSGATVALACLVLGYFPEPVTVSWNSGALTSGVHTFPAVLQASGLYSLSSMVTVPSSRWLSDTFTCNVAHPPSNTKVDKTVRKTDHPPGPKPCDCPKCPPPEAAGGPSIFIFPPKPKDTLSISRTPEVTCLVVDLGPDDSDVQITWFVDNTQVYTAKTSPREEQFNSTYRVVSVLPILHQDWLKGKEFKCKVNSKSLPSPIERTISKAKGQPHEPQVYVLPPAQEELSRNKVSVTCLIKSFHPPDIAVEWEITGQPEPENNYRTTPPQLDSDGTYFVYSKLSVDRSHWQRGNTYTCSVSHEALHSHHTQKSLTQSPG
# light: EIQMTQSPTSLSASVGDRVTITCRASEGIANNLSWYQQTPGKAPKLLIYATSNLHSGVPSRFSGSGSGTDFTLTISSLQPEDFATYYCQQGFKWPLTFGGGTKLEITRSDAQPSVFLFQPSLDELHTGSASIVCILNDFYPKEVNVKWKVDGVVQNKGIQESTTEQNSKDSTYSLSSTLTMSSTEYQSHEKFSCEVTHKSLASTLVKSFNRSECQRE
# notes: Constant domain carries the MALA mutations (M234A, L244A as printed); variable domains from WO 2023/97275; also called Wild-type Fc; wild type feline Fc
# B2: IgG with feline IgG1a Fc variant S252M, Q311V (antibody)
# heavy: B1 heavy with S261M, Q320V
# light: B1 light
# notes: IgG1a constant domain with MALA mutations (M234A, L244A as printed); variable domains from WO 2023/97275
# B3: IgG with feline IgG1a Fc variant S252M, L309V (antibody)
# heavy: B1 heavy with S261M, L318V
# light: B1 light
# notes: as for B2
# B4: IgG with feline IgG1a Fc variant S252M, R392E (antibody)
# heavy: B1 heavy with S261M, R403E
# light: B1 light
# notes: as for B2
# B5: IgG with feline IgG1a Fc variant S252M, R301Y (antibody)
# heavy: B1 heavy with S261M, R310Y
# light: B1 light
# notes: as for B2
# B6: IgG with feline IgG1a Fc variant S252M, I377Y (antibody)
# heavy: B1 heavy with S261M, I386Y
# light: B1 light
# notes: Printed '1377Y' read as I377Y; IgG1a constant domain with MALA mutations (M234A, L244A as printed); variable domains from WO 2023/97275; also called S252M, 1377Y
# B7: IgG with feline IgG1a Fc variant S252M, R392D (antibody)
# heavy: B1 heavy with S261M, R403D
# light: B1 light
# notes: as for B2
# B8: IgG with feline IgG1a Fc variant S252M (antibody)
# heavy: B1 heavy with S261M
# light: B1 light
# notes: as for B2
# B9: IgG with feline IgG1a Fc variant S252M, I377L (antibody)
# heavy: B1 heavy with S261M, I386L
# light: B1 light
# notes: Printed '1377L' read as I377L; IgG1a constant domain with MALA mutations (M234A, L244A as printed); variable domains from WO 2023/97275; also called S252M, 1377L
# B10: IgG with feline IgG1a Fc variant S252M, R301L (antibody)
# heavy: B1 heavy with S261M, R310L
# light: B1 light
# notes: as for B2
# B11: IgG with feline IgG1a Fc variant S252M, R301V (antibody)
# heavy: B1 heavy with S261M, R310V
# light: B1 light
# notes: as for B2
# B12: IgG with feline IgG1a Fc variant S252M, L309D (antibody)
# heavy: B1 heavy with S261M, L318D
# light: B1 light
# notes: as for B2
# Target: T1, feline FcRn (soluble portion of large subunit p51 isoform X1 with C-terminal 6xHis-tag, co-expressed with … (feline, UniProt Q5MGS7 21-118))
# T1 construct: Heterodimer made by co-expression in CHO cells, purified on HisTrap FF; also called FcRn complex
# T1 sequence (chain, as listed by the source limits assumed, chain 1 of 2): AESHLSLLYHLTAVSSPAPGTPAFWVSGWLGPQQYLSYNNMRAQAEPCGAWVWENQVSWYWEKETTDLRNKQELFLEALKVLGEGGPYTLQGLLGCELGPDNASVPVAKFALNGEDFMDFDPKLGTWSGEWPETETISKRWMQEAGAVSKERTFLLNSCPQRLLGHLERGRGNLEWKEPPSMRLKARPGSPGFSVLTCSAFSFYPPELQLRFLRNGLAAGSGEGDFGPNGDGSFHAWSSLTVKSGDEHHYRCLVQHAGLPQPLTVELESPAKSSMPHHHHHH
# T1 sequence (Q5MGS7 other isoform, or with tags, fused parts or gaps limits assumed, chain 2 of 2): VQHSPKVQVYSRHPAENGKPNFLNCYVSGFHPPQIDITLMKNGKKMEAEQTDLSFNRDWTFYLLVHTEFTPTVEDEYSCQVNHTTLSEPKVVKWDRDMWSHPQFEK
# Test: SPR, Biacore T200, IgG captured on Protein L chip, feline FcRn flowed over, pH 5.9, 1:1 fit
# Method: The feline FcRn binding experiments at pH 5.9 were completed on a BIACORE™ T200 instrument. A Series S Protein L Sensor chip (Cytiva, Cat. No. BR29205137) was used to capture the antibody variants via the kappa (κ) light chain. The feline variants were captured onto the protein L chip at a flow rate of 10 μL/min for 60 seconds. 1×PBX-P+(Cytiva Cat 28995084) was adjusted to pH 5.9 for the running buffer. The feline FcRn was flowed over the sensor chip at 30 μL/min for 120 seconds contact time and 600 seconds dissociation time. Regeneration of the flow cells was completed by flowing over 10 mM glycine, pH 1.7 at 30 μL/min for 30 seconds. The data were evaluated by the BIACORE™T200 Evaluation software v3.2.1 by fitting to a 1:1 kinetic interaction model.
Kd [nM],koff [s⁻¹],kon [M⁻¹ s⁻¹],Binder
417,0.273,709000,B1
152,0.121,865000,B2
129,0.124,958000,B3
186,0.177,965000,B4
258,0.18,695000,B5
202,0.175,862000,B6
268,0.229,856000,B7
279,0.192,690000,B8
216,0.187,869000,B9
280,0.332,1.2e+06,B10
278,0.206,745000,B11
352,0.203,581000,B12
